Data on twelve molecules can be found in paper PMC11885821, “Structures of complete HIV-1 TAR RNA portray a dynamic platform poised for protein binding and structural remodeling”.

The Kd is the constant that tells how readily two partners part at equilibrium.

Numbering of substitutions follows the chain as printed. Numbers in names are those of the source.

In data set [1] the target is PKR (unphosphorylated) (Homo sapiens) (UniProt P19525). The experiment in a line: FP.
Data set [2] has as its target PKR dsRBMs (Homo sapiens) (UniProt P19525). The experiment in a line: FP.
Data set [3] deals with T1, PKR dsRBMs (Homo sapiens, UniProt P19525 9-167). The experiment in a line: FP. To be noted: protein: recombinant, tags: tag cleaved by TEV, hairpin.
T1 sequence (P19525 9-167): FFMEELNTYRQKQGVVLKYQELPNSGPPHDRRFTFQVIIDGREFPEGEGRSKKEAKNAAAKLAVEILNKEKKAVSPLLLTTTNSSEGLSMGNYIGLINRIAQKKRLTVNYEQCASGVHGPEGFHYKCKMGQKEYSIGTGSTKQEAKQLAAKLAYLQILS
The target of data set [4] is T2, PKR (unphosphorylated) (Homo sapiens, UniProt P19525 1-551). The experiment in a line: FP. Particulars: protein: recombinant, tags: His tag (HisTrap purified), hairpin.
T2 sequence (P19525 whole entry): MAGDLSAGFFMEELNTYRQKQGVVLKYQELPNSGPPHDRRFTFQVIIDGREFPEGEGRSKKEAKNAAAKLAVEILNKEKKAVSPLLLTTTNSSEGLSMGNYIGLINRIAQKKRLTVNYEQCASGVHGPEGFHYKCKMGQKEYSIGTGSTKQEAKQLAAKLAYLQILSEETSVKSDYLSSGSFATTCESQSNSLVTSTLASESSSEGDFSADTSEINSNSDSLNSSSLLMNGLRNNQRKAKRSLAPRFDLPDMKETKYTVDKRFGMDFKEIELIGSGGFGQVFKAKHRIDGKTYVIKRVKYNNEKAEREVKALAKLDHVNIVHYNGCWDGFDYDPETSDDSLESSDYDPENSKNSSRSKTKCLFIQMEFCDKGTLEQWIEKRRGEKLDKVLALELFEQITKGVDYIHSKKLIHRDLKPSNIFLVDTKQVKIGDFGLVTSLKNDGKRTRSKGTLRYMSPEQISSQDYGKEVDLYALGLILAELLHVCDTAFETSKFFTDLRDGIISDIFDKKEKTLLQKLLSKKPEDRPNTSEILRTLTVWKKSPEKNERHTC
Data set [5] deals with T3, Tat44-60 WT (HIV-1, UniProt P04608).
T3 chain: GISYGRKKRRQRRRAHQ
The experiment in a line: ITC; 1 mM Mg2+. To be noted: label: 3' FAM in FP; none in ITC and SEC-MALS; hairpin, blunt 2 G-C end; bulges C5, A17, U23-C24-U25.

The target in data set [6] is T2, PKR (unphosphorylated). The experiment in a line: FP; printed Kd 0.02 uM conflicts with log Ka and with text (3-fold weaker). Particulars: protein: recombinant; tags: His tag (HisTrap purified); label: 3' FAM; hairpin.
Data set [7] has as its target T3, Tat44-60 WT. The experiment in a line: crystal structure; peptide soaked into TAR-I crystals, 2.7 A; FP: 25 mM Tris-HCl pH 7.5, 50 mM NaCl, 50 mM KCl, 2 mM MgCl2, 21 C, 5 nM RNA; ITC: 25 mM Tris-HCl pH 7.5, 100 mM NaCl, 1 mM MgCl2, 25 C. Particulars: hairpin, GAAA tetraloop.
The target in data set [8] is T3, Tat44-60 WT. The experiment in a line: 2AP fluorescence lifetime. To be noted: label: 2AP; hairpin.
Data set [9] has as its target T1, PKR dsRBMs. The experiment in a line: 2AP fluorescence lifetime. To be noted: protein: recombinant; tags: tag cleaved by TEV; label: 2AP; hairpin.
The next data set has as its target NC (nucleocapsid) (HIV-1, UniProt P04591 378-432). The experiment in a line: 2AP fluorescence lifetime. To be noted: protein: recombinant; tags: MBP tag cleaved by PreScission; label: 2AP; hairpin.
The mark [10] stands for this setting: label: 3' FAM in FP, none in ITC and SEC-MALS, blunt 2 G-C end, bulges C5, A17, U23-C24-U25.

Chain of PKR dsRBMs (Homo sapiens) (P19525 9-167): as the sequence (P19525 9-167) above
Chain of PKR (unphosphorylated) (Homo sapiens) (P19525 whole entry): as the sequence (P19525 whole entry) above

On to TARΔ23-39, for which the Kd in data set [1] turned out to be 54 nM; in data set [2], 190 nM.
VA-I RNA: the results for the Kd in data set [1] and in data set [2] were 40 nM and 220 nM, respectively.
Regarding GUUAGACCAGAUCUGAGCCUGGGAGCUCUCUGGCUAAC (structured_RNA) [TARΔ9bp], the values for the Kd with PKR dsRBMs [3] (label: 3' FAM) and in the data set with PKR (unphosphorylated) [4] (label: 3' FAM) were 1900 ± 700 nM and 130 ± 40 nM, respectively.
The matching figures for CUCUGGUUAGACCAGAUCUGAGCCUGGGAGCUCUCUGGCUAACUAGGG (structured_RNA) [TARΔ4bp]: 290 ± 20 nM and 50 ± 3 nM.

B1: TAR2GC (WT) (structured_RNA)
RNA: GGUCUCUCUGGUUAGACCAGAUCUGAGCCUGGGAGCUCUCUGGCUAACUAGGGAACC
On to B1, for which the Kd in the data set with PKR dsRBMs [3] (setting [10]) came out at 120 ± 10 nM; in the data set with PKR (unphosphorylated) [4] (setting [10]), 35 ± 5 nM; in the data set with Tat44-60 WT [5], 160 ± 100 nM.

B2: TAR A48U/C49G/U50A (structured_RNA)
RNA: B1 RNA with A47U, C48G, U49A
For the molecule B2, in the data set with PKR dsRBMs [3] (label: 3' FAM), the Kd is 360 ± 120 nM. In the data set with PKR (unphosphorylated) [6], the Ka is 7.02 ± 0.11 log10 M-1.

B3: TAR GAAA (TAR-I) (structured_RNA)
RNA: B1 RNA with U30G, G31A, G32A, G33A
On to B3, for which the binding result with Tat44-60 WT [7] is reported as “binds”.

B4: 2AP24 TAR2GC (structured_RNA)
RNA: B1 RNA with C23A
modifications: 2-aminopurine at C24
In the case of B4, the binding result with Tat44-60 WT [8], with PKR dsRBMs [9] and with NC (nucleocapsid) was “binds” each time.

B5: 2AP20 TAR2GC (structured_RNA)
RNA: B1 RNA
modifications: 2-aminopurine at A20
Regarding B5, the binding result with Tat44-60 WT [8], with PKR dsRBMs [9] and in the data set with NC (nucleocapsid) was “binds” each time.

B6: 2AP3 TAR2GC C57U (structured_RNA)
RNA: B1 RNA with G2A, C56U
modifications: 2-aminopurine at G3; C57U
Take B6: the binding result with Tat44-60 WT [8], in the data set with PKR dsRBMs [9] and with NC (nucleocapsid) was “binds” throughout.

B7: 2AP17 TAR2GC (structured_RNA)
RNA: B1 RNA
modifications: 2-aminopurine at A17
For the molecule B7, the binding result with Tat44-60 WT [8] and in the data set with NC (nucleocapsid) was “binds” throughout.
Turning to CCAGAUCUGAGCCUGGGAGCUCUCUGG (structured_RNA) [TARΔ14bp], the Kd is 2280 ± 700 nM with PKR dsRBMs [3] (label: 3' FAM) and 1230 ± 1000 nM with PKR (unphosphorylated) [4] (label: 3' FAM).
